T1: mouse RXFP1 (mouse, UniProt Q6R6I7 1-758)
T1 sequence (looked up): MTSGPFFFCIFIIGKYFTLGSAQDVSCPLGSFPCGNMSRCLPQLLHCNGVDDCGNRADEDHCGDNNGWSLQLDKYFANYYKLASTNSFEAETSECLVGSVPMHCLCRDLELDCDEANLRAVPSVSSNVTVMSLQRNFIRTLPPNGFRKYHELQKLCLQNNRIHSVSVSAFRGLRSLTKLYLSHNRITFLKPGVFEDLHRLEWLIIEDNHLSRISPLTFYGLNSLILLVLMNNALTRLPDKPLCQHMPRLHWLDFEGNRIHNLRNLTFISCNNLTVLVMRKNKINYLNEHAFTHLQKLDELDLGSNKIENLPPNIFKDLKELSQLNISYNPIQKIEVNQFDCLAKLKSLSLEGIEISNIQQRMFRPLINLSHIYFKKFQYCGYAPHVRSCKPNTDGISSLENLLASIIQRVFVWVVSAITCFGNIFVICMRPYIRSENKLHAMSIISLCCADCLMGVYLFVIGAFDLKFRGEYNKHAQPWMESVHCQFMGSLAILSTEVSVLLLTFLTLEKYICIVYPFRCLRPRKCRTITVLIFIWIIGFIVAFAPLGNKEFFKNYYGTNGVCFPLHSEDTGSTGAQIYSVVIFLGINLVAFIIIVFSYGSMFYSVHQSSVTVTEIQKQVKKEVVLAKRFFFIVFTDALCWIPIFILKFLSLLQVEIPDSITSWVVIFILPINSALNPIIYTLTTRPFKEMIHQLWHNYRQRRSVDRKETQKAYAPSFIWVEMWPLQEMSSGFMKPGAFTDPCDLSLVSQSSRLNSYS

T2: human RXFP1 (human, UniProt Q9HBX9 1-757)
T2 sequence (looked up): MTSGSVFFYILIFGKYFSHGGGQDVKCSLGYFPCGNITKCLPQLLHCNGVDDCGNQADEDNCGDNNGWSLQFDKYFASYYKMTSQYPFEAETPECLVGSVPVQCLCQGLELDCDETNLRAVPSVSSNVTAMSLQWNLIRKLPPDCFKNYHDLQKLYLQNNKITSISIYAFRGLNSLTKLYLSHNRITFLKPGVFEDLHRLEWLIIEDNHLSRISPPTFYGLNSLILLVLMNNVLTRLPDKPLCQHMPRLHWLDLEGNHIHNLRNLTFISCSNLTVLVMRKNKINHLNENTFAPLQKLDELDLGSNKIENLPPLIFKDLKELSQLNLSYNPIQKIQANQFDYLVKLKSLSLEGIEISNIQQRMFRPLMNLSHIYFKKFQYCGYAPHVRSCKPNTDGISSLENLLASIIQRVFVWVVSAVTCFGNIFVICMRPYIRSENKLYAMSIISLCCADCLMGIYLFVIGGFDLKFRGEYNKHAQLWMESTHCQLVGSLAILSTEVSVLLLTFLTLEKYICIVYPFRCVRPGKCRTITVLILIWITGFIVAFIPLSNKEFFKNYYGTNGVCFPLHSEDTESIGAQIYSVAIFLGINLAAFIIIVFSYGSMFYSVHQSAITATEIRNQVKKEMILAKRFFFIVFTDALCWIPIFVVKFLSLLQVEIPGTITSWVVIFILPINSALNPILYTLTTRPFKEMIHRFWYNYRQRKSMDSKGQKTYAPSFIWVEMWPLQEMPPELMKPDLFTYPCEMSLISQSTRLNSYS


Experiments:
Test in all cases: cell-based or functional assay
[1] = molecular target: T1, mouse RXFP1
[2] = molecular target: T2, human RXFP1
[3] = molecular target: human RXFP2 (human, UniProt Q8WXD0 1-754)
Sequence of human RXFP2 (Q8WXD0 whole entry): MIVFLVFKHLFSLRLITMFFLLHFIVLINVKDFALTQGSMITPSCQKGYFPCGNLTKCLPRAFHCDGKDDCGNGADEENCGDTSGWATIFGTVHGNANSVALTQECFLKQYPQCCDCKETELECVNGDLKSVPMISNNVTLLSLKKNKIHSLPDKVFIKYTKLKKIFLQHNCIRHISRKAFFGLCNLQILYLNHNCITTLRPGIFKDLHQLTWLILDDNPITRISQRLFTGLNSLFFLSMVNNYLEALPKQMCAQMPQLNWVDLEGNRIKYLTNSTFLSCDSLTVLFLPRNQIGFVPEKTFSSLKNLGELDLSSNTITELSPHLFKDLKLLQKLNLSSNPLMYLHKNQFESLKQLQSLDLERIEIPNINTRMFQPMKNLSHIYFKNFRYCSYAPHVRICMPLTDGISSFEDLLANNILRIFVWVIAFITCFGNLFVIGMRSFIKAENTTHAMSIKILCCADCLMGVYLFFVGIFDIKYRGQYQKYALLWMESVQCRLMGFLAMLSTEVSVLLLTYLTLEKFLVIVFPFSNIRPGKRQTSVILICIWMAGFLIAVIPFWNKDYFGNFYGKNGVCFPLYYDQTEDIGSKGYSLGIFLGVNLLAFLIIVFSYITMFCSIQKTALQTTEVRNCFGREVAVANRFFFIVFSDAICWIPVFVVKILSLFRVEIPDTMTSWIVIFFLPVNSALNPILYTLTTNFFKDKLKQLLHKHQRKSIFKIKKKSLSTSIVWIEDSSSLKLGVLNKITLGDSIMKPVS

EC50 mRXFP1 (M), cAMP HTRF assay [1] [M]	EC50 hRXFP1 (M), cAMP HTRF assay [2] [M]	EC50 hRXFP2 (M), cAMP HTRF assay [3] [M]	Binder
1.34e-11	2.81e-11	2.42e-08	RELAX0083 (Fc fusion) chain 1: DKTHTCPPCPAPEFEGGPSVFLFPPKPKDTLMISRTPEVTCVVVDVSHEDPEVKFNWYVDGVEVHNAKTKPREEQYNSTYRVVSVLTVLHQDWLNGKEYKCKVSNKALPASIEKTISKAKGQPREPQVYTLPPCREEMTKNQVSLWCLVKGFYPSDIAVEWESNGQPENNYKTTPPVLDSDGSFFLYSKLTVDKSRWQQGNVFSCSVMHEALHNHYTQKSLSLSPGGGGGGSQLYSALANKCCHVGCTKRSLARFC chain 2: DKTHTCPPCPAPEFEGGPSVFLFPPKPKDTLMISRTPEVTCVVVDVSHEDPEVKFNWYVDGVEVHNAKTKPREEQYNSTYRVVSVLTVLHQDWLNGKEYKCKVSNKALPASIEKTISKAKGQPREPQVCTLPPSREEMTKNQVSLSCAVKGFYPSDIAVEWESNGQPENNYKTTPPVLDSDGSFFLVSKLTVDKSRWQQGNVFSCSVMHEALHNHYTQKSLSLSPGGGGGGSSWMEEVIKLCGRELVRAQIAICGMSTWS
4.73e-11	4.51e-11	4.92e-08	RELAX0081 (Fc fusion) chain 1: DKTHTCPPCPAPEFEGGPSVFLFPPKPKDTLMISRTPEVTCVVVDVSHEDPEVKFNWYVDGVEVHNAKTKPREEQYNSTYRVVSVLTVLHQDWLNGKEYKCKVSNKALPASIEKTISKAKGQPREPQVYTLPPCREEMTKNQVSLWCLVKGFYPSDIAVEWESNGQPENNYKTTPPVLDSDGSFFLYSKLTVDKSRWQQGNVFSCSVMHEALHNHYTQKSLSLSPGGGGGSGGGGSGGGGGSQLYSALANKCCHVGCTKRSLARFC chain 2: DKTHTCPPCPAPEFEGGPSVFLFPPKPKDTLMISRTPEVTCVVVDVSHEDPEVKFNWYVDGVEVHNAKTKPREEQYNSTYRVVSVLTVLHQDWLNGKEYKCKVSNKALPASIEKTISKAKGQPREPQVCTLPPSREEMTKNQVSLSCAVKGFYPSDIAVEWESNGQPENNYKTTPPVLDSDGSFFLVSKLTVDKSRWQQGNVFSCSVMHEALHNHYTQKSLSLSPGGGGGSGGGGSGGGGGSSWMEEVIKLCGRELVRAQIAICGMSTWS
8.22e-10	1.72e-09	–	RELAX0109 (Fc fusion) chain 1: DKTHTCPPCPAPEFEGGPSVFLFPPKPKDTLMISRTPEVTCVVVDVSHEDPEVKFNWYVDGVEVHNAKTKPREEQYNSTYRVVSVLTVLHQDWLNGKEYKCKVSNKALPASIEKTISKAKGQPREPQVYTLPPCREEMTKNQVSLWCLVKGFYPSDIAVEWESNGQPENNYKTTPPVLDSDGSFFLYSKLTVDKSRWQQGNVFSCSVMHEALHNHYTQKSLSLSPGGGGGSGGGGSGGGGGSQLYSALANKCCHVGCTKRSLARFC chain 2: DKTHTCPPCPAPEFEGGPSVFLFPPKPKDTLMISRTPEVTCVVVDVSHEDPEVKFNWYVDGVEVHNAKTKPREEQYNSTYRVVSVLTVLHQDWLNGKEYKCKVSNKALPASIEKTISKAKGQPREPQVYTLPPCREEMTKNQVSLWCLVKGFYPSDIAVEWESNGQPENNYKTTPPVLDSDGSFFLYSKLTVDKSRWQQGNVFSCSVMHEALHNHYTQKSLSLSPGAAPAPAPAPAPAPAGSSWMEEVIKLCGRELVRAQIAICGMSTWS
3.27e-11	3.87e-11	6.48e-08	RELAX0056 (Fc fusion) chain 1: DKTHTCPPCPAPEFEGGPSVFLFPPKPKDTLMISRTPEVTCVVVDVSHEDPEVKFNWYVDGVEVHNAKTKPREEQYNSTYRVVSVLTVLHQDWLNGKEYKCKVSNKALPASIEKTISKAKGQPREPQVYTLPPCREEMTKNQVSLWCLVKGFYPSDIAVEWESNGQPENNYKTTPPVLDSDGSFFLYSKLTVDKSRWQQGNVFSCSVMHEALHNHYTQKSLSLSPGAPAPAPAPAPAPAPAPAPAGSQLYSALANKCCHVGCTKRSLARFC chain 2: DKTHTCPPCPAPEFEGGPSVFLFPPKPKDTLMISRTPEVTCVVVDVSHEDPEVKFNWYVDGVEVHNAKTKPREEQYNSTYRVVSVLTVLHQDWLNGKEYKCKVSNKALPASIEKTISKAKGQPREPQVCTLPPSREEMTKNQVSLSCAVKGFYPSDIAVEWESNGQPENNYKTTPPVLDSDGSFFLVSKLTVDKSRWQQGNVFSCSVMHEALHNHYTQKSLSLSPGAPAPAPAPAPAPAPAPAPAGSSWMEEVIKLCGRELVRAQIAICGMSTWS
4.9e-11	5.68e-11	3.81e-08	RELAX0082 (Fc fusion) chain 1: DKTHTCPPCPAPEFEGGPSVFLFPPKPKDTLMISRTPEVTCVVVDVSHEDPEVKFNWYVDGVEVHNAKTKPREEQYNSTYRVVSVLTVLHQDWLNGKEYKCKVSNKALPASIEKTISKAKGQPREPQVYTLPPCREEMTKNQVSLWCLVKGFYPSDIAVEWESNGQPENNYKTTPPVLDSDGSFFLYSKLTVDKSRWQQGNVFSCSVMHEALHNHYTQKSLSLSPGGGGGSGGGGGSQLYSALANKCCHVGCTKRSLARFC chain 2: DKTHTCPPCPAPEFEGGPSVFLFPPKPKDTLMISRTPEVTCVVVDVSHEDPEVKFNWYVDGVEVHNAKTKPREEQYNSTYRVVSVLTVLHQDWLNGKEYKCKVSNKALPASIEKTISKAKGQPREPQVCTLPPSREEMTKNQVSLSCAVKGFYPSDIAVEWESNGQPENNYKTTPPVLDSDGSFFLVSKLTVDKSRWQQGNVFSCSVMHEALHNHYTQKSLSLSPGGGGGSGGGGGSSWMEEVIKLCGRELVRAQIAICGMSTWS
1.51e-11	1.88e-11	3.39e-08	RELAX0055 (Fc fusion) chain 1: DKTHTCPPCPAPEFEGGPSVFLFPPKPKDTLMISRTPEVTCVVVDVSHEDPEVKFNWYVDGVEVHNAKTKPREEQYNSTYRVVSVLTVLHQDWLNGKEYKCKVSNKALPASIEKTISKAKGQPREPQVYTLPPCREEMTKNQVSLWCLVKGFYPSDIAVEWESNGQPENNYKTTPPVLDSDGSFFLYSKLTVDKSRWQQGNVFSCSVMHEALHNHYTQKSLSLSPGAPAPAPAPAGSQLYSALANKCCHVGCTKRSLARFC chain 2: DKTHTCPPCPAPEFEGGPSVFLFPPKPKDTLMISRTPEVTCVVVDVSHEDPEVKFNWYVDGVEVHNAKTKPREEQYNSTYRVVSVLTVLHQDWLNGKEYKCKVSNKALPASIEKTISKAKGQPREPQVCTLPPSREEMTKNQVSLSCAVKGFYPSDIAVEWESNGQPENNYKTTPPVLDSDGSFFLVSKLTVDKSRWQQGNVFSCSVMHEALHNHYTQKSLSLSPGAPAPAPAPAGSSWMEEVIKLCGRELVRAQIAICGMSTWS
1.59e-11	2.89e-11	1.53e-08	RELAX0054 (Fc fusion) chain 1: DKTHTCPPCPAPEFEGGPSVFLFPPKPKDTLMISRTPEVTCVVVDVSHEDPEVKFNWYVDGVEVHNAKTKPREEQYNSTYRVVSVLTVLHQDWLNGKEYKCKVSNKALPASIEKTISKAKGQPREPQVCTLPPSREEMTKNQVSLSCAVKGFYPSDIAVEWESNGQPENNYKTTPPVLDSDGSFFLVSKLTVDKSRWQQGNVFSCSVMHEALHNHYTQKSLSLSPGAAPAPAPAPAPAPAGSQLYSALANKCCHVGCTKRSLARFC chain 2: DKTHTCPPCPAPEFEGGPSVFLFPPKPKDTLMISRTPEVTCVVVDVSHEDPEVKFNWYVDGVEVHNAKTKPREEQYNSTYRVVSVLTVLHQDWLNGKEYKCKVSNKALPASIEKTISKAKGQPREPQVYTLPPCREEMTKNQVSLWCLVKGFYPSDIAVEWESNGQPENNYKTTPPVLDSDGSFFLYSKLTVDKSRWQQGNVFSCSVMHEALHNHYTQKSLSLSPGAAPAPAPAPAPAPAGSSWMEEVIKLCGRELVRAQIAICGMSTWS

Reference: patent publication US20250295737A1 (AstraZeneca / MedImmune, published 2025)
